From paper PMC5041073

Target: Dbf4(5)Rad53 chimera (Dbf4-SGASG-Rad53) (S. cerevisiae) (UniProt P32325)
Assay: AUC; sedimentation velocity, 50,000 rpm, 20 °C, 2 to 310 μM, 0.2 M NaCl, 0.02 M TRIS-HCl pH 8.0, 1.4 mM 2-mercaptoethanol, 5% v/v glycerol; weighted-average s isotherm fitted to a reversible monomer-dimer equilibrium; dimer to monomers

Dbf4(5)Rad53 chimera (Dbf4-SGASG-Rad53) (from UniProt P32325 105-220; P22216 22-162)
Kd: 130 µM | stoichiometry N: 2
